The text below walks through data of patent US11896642.

No end group written: not given here.

Sequences and labels used below:
B1: HA108 backbone HA, 10PM (peptide)
peptide: GQLYKSILYGSGSGSRR
modifications: not fully specified (C-terminus); also: several peptides per HA backbone, peptide load 10
B2: HA108 backbone HA, 50PM (peptide)
peptide: GQLYKSILYGSGSGSRR
modifications: not fully specified (C-terminus); also: several peptides per HA backbone, peptide load 50
B3: HA108 backbone HA, 30PM (peptide)
peptide: GQLYKSILYGSGSGSRR
modifications: not fully specified (C-terminus); also: several peptides per HA backbone, peptide load 30
B4: HA108 backbone HA, 20PM (peptide)
peptide: GQLYKSILYGSGSGSRR
modifications: not fully specified (C-terminus); also: several peptides per HA backbone, peptide load 20

The first assay addresses Rat tail monomeric collagen I (Corning) (rat) (UniProt P02454). Description: competitive ELISA on plate-coated rat tail collagen I, competitor biotin Compound 1B; IC50 against that of Compound 1. For orientation: In an ELISA, binding on a coated surface is turned into a signal by an enzyme label.
Turning to B1, the ratio IC50sample/IC50 Compound 1 is 14.8.

As for B2, the ratio IC50sample/IC50 Compound 1 was found to be 7.49.

With B3, the ratio IC50sample/IC50 Compound 1 came out at 13.4.

In the case of B4, the ratio IC50sample/IC50 Compound 1 was 2.82.

The target of the next assay is biotin labeled PDGF-BB (R&D Systems) (UniProt P01127). Description: competitive ELISA: biotin PDGF-BB pre-incubated with conjugate at 1 mg/mL, added to plate-coated PDGF-Rβ Fc; A450 against reference Compound 1 (higher = less inhibition).
Sequence of UniProt P01127 (P01127 82-190): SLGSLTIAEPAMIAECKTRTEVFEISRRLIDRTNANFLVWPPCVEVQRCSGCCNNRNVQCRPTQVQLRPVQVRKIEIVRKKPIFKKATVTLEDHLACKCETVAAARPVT
Consider B1, for which the ratio Absorbance 450 conjugate/Absorbance 450 reference stood at 17.

As to B2, the ratio Absorbance 450 conjugate/Absorbance 450 reference was 9.31.

With B3, the ratio Absorbance 450 conjugate/Absorbance 450 reference came to 14.2.

As to B4, the ratio Absorbance 450 conjugate/Absorbance 450 reference came out at 16.3.
